Laboratory results published in patent US20070134720.

Target: GST-fused P4HA1 protein (whole region of P4HA1)
Sequence (chain, as listed by the source): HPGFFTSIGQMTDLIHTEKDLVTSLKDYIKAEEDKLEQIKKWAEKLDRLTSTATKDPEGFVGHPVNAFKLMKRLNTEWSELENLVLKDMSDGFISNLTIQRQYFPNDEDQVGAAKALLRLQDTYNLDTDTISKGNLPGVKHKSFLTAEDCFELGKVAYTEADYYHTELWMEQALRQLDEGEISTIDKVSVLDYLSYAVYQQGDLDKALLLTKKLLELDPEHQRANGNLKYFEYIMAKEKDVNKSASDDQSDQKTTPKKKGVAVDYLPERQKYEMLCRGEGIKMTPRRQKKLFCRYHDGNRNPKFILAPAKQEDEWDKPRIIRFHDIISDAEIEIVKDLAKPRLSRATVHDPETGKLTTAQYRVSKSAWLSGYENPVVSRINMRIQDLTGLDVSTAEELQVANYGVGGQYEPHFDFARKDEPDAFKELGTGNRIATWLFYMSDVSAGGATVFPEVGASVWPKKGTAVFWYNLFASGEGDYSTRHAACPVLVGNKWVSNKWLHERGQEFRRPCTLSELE

Row | Protein | in vitro ubiquitination (32P-labeled ubiquitin, E1, E2 UbCH5c, ATP; SDS-PAGE autoradiography)
1 | Syno dTM synoviolin protein (GST moiety removed by thrombin) (protein) KVHTFPLFAIRPMYLAMRQFKKAVTDAIMSRRAIRNMNTLYPDATPEELQAMDNVCIICREEMVTGAKRLPCNHIFHTSCLRSWFQRQQTCPTCRMDVLRASLPAQSPPPPEPADQGPPPAPHPPPLLPQPPNFPQGLLPPFPPGMFPLWPPMGPFPPVPPPPSSGEAVAPPSTSAAALSRPSGAATTTAAGTSATAASATASGPGSGSAPEAGPAPGFPFPPPWMGMPLPPPFAFPPMPVPPAGFAGLTPEELRALEGHERQHLEARLQSLRNIHTLLDAAMLQINQYLTVLASLGPPRPATSVNSTEGTATTVVAAASSTSIPSSEATTPTPGASPPAPEMERPPAPESVGTEEMPEDGEPDAAELRRRRLQKLESPVAH | P4HA1 was ubiquitinated by Syno dTM and Syno RING
2 | Syno dTM (C307S) with 307th cysteine to serine substitution (GST moiety removed by thrombin) (protein) KVHTFPLFAIRPMYLAMRQFKKAVTDAIMSRRAIRNMNTLYPDATPEELQAMDNVCIICREEMVTGAKRLPSNHIFHTSCLRSWFQRQQTCPTCRMDVLRASLPAQSPPPPEPADQGPPPAPHPPPLLPQPPNFPQGLLPPFPPGMFPLWPPMGPFPPVPPPPSSGEAVAPPSTSAAALSRPSGAATTTAAGTSATAASATASGPGSGSAPEAGPAPGFPFPPPWMGMPLPPPFAFPPMPVPPAGFAGLTPEELRALEGHERQHLEARLQSLRNIHTLLDAAMLQINQYLTVLASLGPPRPATSVNSTEGTATTVVAAASSTSIPSSEATTPTPGASPPAPEMERPPAPESVGTEEMPEDGEPDAAELRRRRLQKLESPVAH | P4HA1 was not ubiquitinated by Syno dTM (C307S) and Syno dTM (dRING)
3 | Syno dTM (dRING) with 291st to 329th amino acid deletion (GST moiety removed by thrombin) (protein) KVHTFPLFAIRPMYLAMRQFKKAVTDAIMSRRAIRNMNTLYPDATPEELQAMDNVRMDVLRASLPAQSPPPPEPADQGPPPAPHPPPLLPQPPNFPQGLLPPFPPGMFPLWPPMGPFPPVPPPPSSGEAVAPPSTSAAALSRPSGAATTTAAGTSATAASATASGPGSGSAPEAGPAPGFPFPPPWMGMPLPPPFAFPPMPVPPAGFAGLTPEELRALEGHERQHLEARLQSLRNIHTLLDAAMLQINQYLTVLASLGPPRPATSVNSTEGTATTVVAAASSTSIPSSEATTPTPGASPPAPEMERPPAPESVGTEEMPEDGEPDAAELRRRRLQKLESPVAH | P4HA1 was not ubiquitinated by Syno dTM (C307S) and Syno dTM (dRING)
4 | Syno RING synoviolin protein (GST moiety removed by thrombin) (protein) IRNMNTLYPDATPEELQAMDNVCIICREEMVTGAKRLPCNHIFHTSCLRSWFQRQQTCPTCRMDVLRASLPAQSPPPPEPADQGPPPAPHPPPLLPQPPNFPQGLLPPFPPGMFPLWPPMGPFPPVPPPPSSGEAVAPPSTSAAALSRPSGA | P4HA1 was ubiquitinated by Syno dTM and Syno RING
